Laboratory results as given in the supplement of paper PMC9170038.

Test system: MS2 coat protein
Test: apparent KD of MS2 coat protein; designed switch direction (-1 OFF switch, 1 ON switch): -1; higher = weaker reporter binding
Procedure, shortened: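 Designed RNA switches sharing common flanks were transcribed on Illumina chips by stalled E. coli RNA polymerase. They were titrated with SNAP-549-labelled MS2 coat protein, from 0.7 or 1.5 nM doubling to 3 µM, in Tris-HCl pH 7.5 buffer with KCl, MgCl2, BSA, DTT, tRNA and Tween-20. Titrations ran without input, with 200 uM small-molecule ligand, or with an oligonucleotide input. The apparent KD of each design is the median over its clusters, after curve-fitting of normalised cluster fluorescence.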

[1] = Eterna round: R95, input ligand: FMN 200 uM
[2] = Eterna round: R95, input ligand: microRNA oligo, concentration not stated
[3] = Eterna round: R95, input ligand: none
[4] = input ligand: microRNA oligo, concentration not stated

Sequence	apparent KD of MS2 coat protein [1] [nM]	apparent KD of MS2 coat protein [2] [nM]	apparent KD of MS2 coat protein [3] [nM]	apparent KD of MS2 coat protein (input ligand: FMN 200 uM) [nM]	apparent KD of MS2 coat protein (input ligand: none) [nM]	apparent KD of MS2 coat protein [4] [nM]
AGUACAUACACGAAAGUGUAUGUACAAUAAGCUUGUGGAACAUGAGGAUCACCCAUGUCCUCAUAAGCUCGUCUUAU [Mat - Sensor v3 - Turn-off var 2 - D30] (puzzle: Sensor v3, turn-off variant 2)	16.5	71.4	15.5	–	–	–
AAUUUACAUGAGGAUCACCCAUGUGAGGAUAUGAUACUAUGUACUUCGGUACAUAGUAUCAGAAGGCAUGUGGA [Ex1-3: 91] (puzzle: Exclusion 1)	–	115	–	–	–	–
GUACUACAUGAGGAUCACCCAUGUCAGGAUAUGCGAAUUUCAUCAAAAGAUGAAAUUUGCAGAAGGGACAGUAC [Omei Ex1 A1] (Eterna round: R97, puzzle: Exclusion 1)	–	–	–	35.3	24.1	–
AACCAGCGAGGAUAUGCUUGCGCGUGUUCUAGUUGUAAUCGACUUGAGGAUCACCCAAGUAGAAGGCGCUGCCG [EX2 #50] (Eterna round: R97, puzzle: Exclusion 2)	–	–	–	103	119	–
CUUAAUUGUGACAUGGGUGACAUGAGGAUCACCCAUGUCACAAGCUUUUUGUUCGUCUUAUAAUUAACCCAUGUCAC [Stov1/13-B3] (Eterna round: R97, puzzle: Sensor, turn-off variant 1)	–	–	–	44.9	52.7	–
ACUAGGCGAGGAUAUACAUGCUUAACGCAGGAAAAGCUGCGACAUGAGGAUCACCCAUGUAGAAGGCGCAAAUA [Xege] (puzzle: Exclusion 2)	–	15.4	–	–	–	–
UUGCCUAGUGUUAGGAUAUGCGACGGGUGACCGUUGCAGAAGGAACAUGAGGAUCACCCAUGUUUAAUAAAAUC [JL-BMX4-4.44 ViennaUCT mod] (Eterna round: R97, puzzle: Brourd's mod of Exclusion 4)	–	–	–	35.9	13.2	–
GUAGGGUCAGGAUAUACUGGCUGAGGGAUGUAUUGUAGUUGGUAGAAGGGACAUGAGGAUCACCCAUGUAAGAA [JR_Exclu4_Sub056] (puzzle: Exclusion 4)	–	31.6	–	–	–	–
UUUAUGCUAGGAUAUGCACCCUCGAACAUGAGGAUCACCCAUGUACAAUAAACGCAUGAAGCAGAAGGAGCUUCCA [EX5 A.20] (Eterna round: R97, puzzle: Exclusion 5)	–	–	–	56.4	37.1	–
ACUAGAUGAGGAUAUACACAUUUUAGUGUUCCUCUAGAUUAACAUGAGGAUCACCCAUGUAGAAGGCAUCAAUU [Exclusion 2 - 11] (puzzle: Exclusion 2)	–	57.8	–	–	–	–
ACAGUUCUGCAAGGAUAUCGUUCUAGUUUAGUACGAGAAGGUGCUUUAGUUUUUUCUUUGUGUUGACAUGAGGAUCACCCAUGU [JR_ExcNG1_Sub054] (Eterna round: R96, puzzle: Exclusion NG 1)	–	–	–	–	–	17.5
GAUAAACAUGAGGAUCACCCAUGUGAGGAUAUGCGUACGUUGUCCGUAGGCGACGUGCGCAGAAGGCGCAAGGU [Mat - Mod of JL D99] (puzzle: Exclusion 1)	–	73	–	–	–	–
AAUUAUUAUCGAGGAUAUCGUAUUGAAAUAAUAUGAGAAGGCGGGAUAAACAUGAGGAUCACCCAUGUGAGCCUGAUGCUUGUG [Ex NG1 #38] (Eterna round: R96, puzzle: Exclusion NG 1)	–	–	–	–	–	14.9
AGUACUAACACGAGAGUGUUAGUACAAUAAGCUUGUGAAACAUGAGGAUCACCCAUGUCCUCAUAAGCUCGUCUUAU [salish99_TOv2_r3_029] (Eterna round: R96, puzzle: Sensor v3, turn-off variant 2)	–	–	–	15.3	18.1	467
CCCAGAGCGUAAGGAUAUACAUGAGGAUCACCCAUGUCUACAAUAAUAGUACUAUAUGAAGUCGUGUAGAAGGUACGCGCAGGU [Eternabot solution 46] (Eterna round: R96, puzzle: Exclusion NG 2)	–	–	–	–	–	30.7
GAGAAGGUAGGAUAUACGAAUAAAAAGGGUAGAAUAAGAACACAUGAGGAUCACCCAUGUAGAAGGACCAAGAG [Mat - Exclusion 2 - Mod of my Tesla design - D21] (puzzle: Exclusion 2)	32.8	18.4	18.5	–	–	–
UUUGAAAAUGUAGGAUAUGGAAUAGGUAAGUAGCCAGAAGGACAUGAGGAUCACCCAUGUAAGAACAUAGGGAAAGAUAUGUUU [No clue what I'm doing] (Eterna round: R96, puzzle: Exclusion NG 1)	–	–	–	90.8	44.7	32.9

Sequence	apparent KD of MS2 coat protein [1] [nM]	apparent KD of MS2 coat protein [2] [nM]	apparent KD of MS2 coat protein [3] [nM]	apparent KD of MS2 coat protein (input ligand: FMN 200 uM) [nM]	apparent KD of MS2 coat protein (input ligand: none) [nM]	apparent KD of MS2 coat protein [4] [nM]
GGAUAAAACUGAGGAUAUACGCACCACUAACGAGUAGAAGGCAGACAUGAGGAUCACCCAUGUGAGUUCUCAAUAAGAAACACG [Prohibition 66 - Jieux - Exclusion NG 1] (Eterna round: R96, puzzle: Exclusion NG 1)	–	–	–	192	85.1	88.9
GACAUGAGGAUCACCCAUGUAAGGGAUGAACUUCUGGGUAGCUAGGAUAUGGCUACAAAUGUGGACCAGAAGGAGCAUACCCUA [Didianveon] (Eterna round: R96, puzzle: Exclusion NG 3)	–	–	–	13	16.7	12.7
GCAUUUGUAGGAUAUACAUGAGGAUCACCCAUGUCGAGACGUGCAAGGCUUCCCAACUGUAGAAGGACGCGGCC [Eternabot (L1) Solution 61] (Eterna round: R97, puzzle: Exclusion 3)	–	–	–	30.8	27.4	–
ACAUGAGGAUCACCCAUGUCCGGCUGGUCCGUCUCGGCUGUCGAGGAUAUAGCUCGGUGUCCGCGCUAGAAGGUGGGAGCUGGU [Aenatbe mod 68] (Eterna round: R96, puzzle: Exclusion NG 3)	–	–	–	150	135	93.3
GCCUCACUUGAGGAUCACCCAAGUCAGGAUAUCUACAAGCCGGCCAUACCGGCUUGCAAGAGAAGGGACUCUAA [Xemamaqu] (Eterna round: R97, puzzle: Exclusion 1)	–	–	–	178	38.5	–
CACAACAGAGGAUAUACAUGAGGAUCACCCAUGUGUUCCAGCUAGGAGACUAGCAAGUGUAGAAGGCUGUUGUG [Mat - Exclusion 3 - JL Mod - D10] (Eterna round: R97, puzzle: Exclusion 3)	–	–	–	269	501	–
ACAUGUGUUGUAGGAUAUAGGAUACAUGAGGAUCACCCAUGUGGAUUCAUGUCAAUGGAAACGUCCUAGAAGGACGACAACAUG [Ex NG2 #22] (Eterna round: R96, puzzle: Exclusion NG 2)	–	–	–	59.5	65	42.7
AGUACUAACACGCAUGUGUUAGUACAAUAAGCUUGUGAAACAUGAGGAUCACCCAUGUCCUCAUAAGCUCGUCUUAU [salish99_TOv2_r3_068] (puzzle: Sensor v3, turn-off variant 2)	17.6	411	16.1	–	–	–
GUGUAGUAAGGAUAUACAUGAGGAUCACCCAUGUGAGUAAGAUAGAAUAAGAUAAAGUGUAGAAGGUAUAGUGU [Excluse me!!! 16 - Jieux - Exclusion 3] (puzzle: Exclusion 3)	42.6	42.8	48.9	–	–	–
CCUUAAAUUGUAAGGAUAUUAAAGCUGCUGAGUUAUAAGAAGGUACAUGAGGAUCACCCAUGUUCGGCAGGGUC [Qulexeri] (puzzle: Brourd's mod of Exclusion 4)	–	17.1	–	–	–	–
GCUGGAAAAGGAUAUACAUAACGUGCGUCGGCACGAGAUCUACAUGAGGAUCACCCAUGUAGAAGGUUUCCAGC [EX2 #73] (Eterna round: R97, puzzle: Exclusion 2)	–	–	–	33.4	14.3	–
AUCAGCUCGUGAGGAUAUACAUGAGGAUCACCCAUGUGAUCAAUAGCAGCUUCGGCUGCAUACAUGUAGAAGGCACGAGCUGAU [ENG2/6-A3] (Eterna round: R96, puzzle: Exclusion NG 2)	–	–	–	95.6	135	19.9
UUCGUGCAGCUUUGCUGUACGCGUACAUGAGGAUCACCCAUGUAGGAUAUGGUAGGCAAAGCUUACUAGAAGGAUAGAGUGAUC [Mat - Exclusion NG 3 - Mod of JL - D74] (Eterna round: R96, puzzle: Exclusion NG 3)	–	–	–	277	122	92.8
UGUUUAUAUGAAGGAUAUACUUAACAUGAGGAUCACCCAUGUGGUGUUGUGAGUGAGUGAGUUUAGUAGAAGGUCAAUGAUUUU [JMF's solution 75] (Eterna round: R96, puzzle: Exclusion NG 2)	–	–	–	1030	333	200
AAGAAACAUGAGGAUCACCCAUGUGAGGAUAUGAUCAAGAAAAGAAAAGAAAGAAGAAUCAGAAGGCACAAAGG [salish99-ex1_r3_044] (puzzle: Exclusion 1)	295	176	342	–	–	–
ACUUACUGAGGAUAUACAUAGAUUUACAUGAGGAUCACCCAUGUUCCUCUAUGUAUAAAUGUAGAAGGCAGAAGUU [Mat - Exclusion 5 - JL Mod - D56] (Eterna round: R97, puzzle: Exclusion 5)	–	–	–	107	21.5	–
UGGGUUCUCCAUAGAAGUAACAUGAGGAUCACCCAUGUAGGGCAAGUUUUUUGCUCGUCAUAGGUUGUGGGUUUGGA [JR_SV3TOV1_Sub018] (puzzle: Sensor v3, turn-off variant 1)	578	491	660	–	–	–
